In series [1] the target is recombinant H5 precursor (HA0).
Series [2] has as its target T1, Pseudomonas exotoxin A (PEx), P11439.
T1 chain: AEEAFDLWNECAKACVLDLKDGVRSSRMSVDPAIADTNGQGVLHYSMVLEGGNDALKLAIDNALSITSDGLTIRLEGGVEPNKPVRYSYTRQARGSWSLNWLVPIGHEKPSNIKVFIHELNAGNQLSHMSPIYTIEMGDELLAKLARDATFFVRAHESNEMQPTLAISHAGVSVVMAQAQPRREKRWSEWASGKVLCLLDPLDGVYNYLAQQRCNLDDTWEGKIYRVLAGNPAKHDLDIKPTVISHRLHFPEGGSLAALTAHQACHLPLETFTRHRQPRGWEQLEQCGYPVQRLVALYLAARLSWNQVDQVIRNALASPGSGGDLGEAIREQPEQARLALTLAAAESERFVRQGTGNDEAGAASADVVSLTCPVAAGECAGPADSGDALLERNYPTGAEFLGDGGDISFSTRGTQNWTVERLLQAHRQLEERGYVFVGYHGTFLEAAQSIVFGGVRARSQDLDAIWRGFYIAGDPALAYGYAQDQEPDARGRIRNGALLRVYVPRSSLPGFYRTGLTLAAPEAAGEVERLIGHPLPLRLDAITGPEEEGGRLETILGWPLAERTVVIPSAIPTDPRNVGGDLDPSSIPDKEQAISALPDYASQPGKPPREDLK

Series [3] has as its target Anthrax Protective Antigen-83 (PA83), P13423.

Chain of Anthrax Protective Antigen-83 (PA83), P13423 (P13423 whole entry, looked up): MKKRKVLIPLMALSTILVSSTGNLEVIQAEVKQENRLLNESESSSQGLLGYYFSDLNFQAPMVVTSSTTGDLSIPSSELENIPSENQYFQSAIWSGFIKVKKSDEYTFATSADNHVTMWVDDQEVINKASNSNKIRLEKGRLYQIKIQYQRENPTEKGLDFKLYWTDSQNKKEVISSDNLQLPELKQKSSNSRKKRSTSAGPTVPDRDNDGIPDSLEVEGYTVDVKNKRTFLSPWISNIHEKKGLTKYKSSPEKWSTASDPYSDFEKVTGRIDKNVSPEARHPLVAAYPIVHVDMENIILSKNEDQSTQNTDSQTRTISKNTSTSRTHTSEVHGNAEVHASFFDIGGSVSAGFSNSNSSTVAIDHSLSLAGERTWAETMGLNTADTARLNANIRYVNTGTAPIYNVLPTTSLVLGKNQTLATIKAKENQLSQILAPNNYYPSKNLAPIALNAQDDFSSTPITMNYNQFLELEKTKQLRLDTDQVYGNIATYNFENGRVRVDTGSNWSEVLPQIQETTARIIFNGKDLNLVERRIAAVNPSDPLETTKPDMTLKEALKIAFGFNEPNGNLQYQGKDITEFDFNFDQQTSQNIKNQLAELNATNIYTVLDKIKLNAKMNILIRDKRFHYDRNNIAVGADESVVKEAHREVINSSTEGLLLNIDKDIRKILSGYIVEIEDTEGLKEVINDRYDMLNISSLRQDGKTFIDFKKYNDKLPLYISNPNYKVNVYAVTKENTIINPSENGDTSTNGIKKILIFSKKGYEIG

B1: Recombinant human PC4 (protein)
chain: SVVVPTDPWFSKQWYMNSEAQPDLSILQAWSQGLSGQGIVVSVLDDGIEKDHPDLWANYDPLASYDFNDYDPDPQPRYTPSKENRHGTRCAGEVAAMANNGFCGVGVAFNARIGGVRMLDGTITDVIEAQSLSLQPQHIHIYSASWGPEDDGRTVDGPGILTREAFRRGVTKGRGGLGTLFIWASGNGGLHYDNCNCDGYTNSIHTLSVGSTTQQGRVPWYSEACASTLTTTYSSGVATDPQIVTTDLHHGCTDQHTGTSASAPLAAGMIALALEANPFLTWRDMQHLVVRASKPAHLQAEDWRTNGVGRQVSHHYGYGLLDAGLLVDTARTWLPTQPQRKCAVRVQSRPTPILPLIYIRENVSACAGLHNSIRSLEHVQAQLTLSYSRRGDLEISLTSPMGTRSTLVAIRPLDVSTEGYNNWVFMSTHFWDENPQGVWTLGLENKGYYFNTGTLYRYTLLLYGTAEDMTARPTGPQVTSSACVQRDTEGLCQACDGPAYILGQLCLAYCPPRFFNHTRLVTAGPGHTAAPALRVCSSCHASCYTCRGGSPRDCTSCPPSSTLDQQQGSCMGPTTPDSRPRLRAAACPHHRCPAS
Turning to B1, the “in vitro cleavage of biotin-labeled substrate (Western blot)” value in series [1] is listed as “other PCs were less efficient”. In series [2], the “in vitro cleavage at pH 5.5 (Western blot)” value is “readily processed”.

B2: Recombinant rat PACE4 (protein)
chain: QARSDSLYFNDPIWSNMWYMHCADKNSRCRSEMNVQAAWKRGYTGKNVVVTILDDGIERNHPDLAPNYDSYASYDVNGNDYDPSPRYDASNENKHGTRCAGEVAASANNSYCIVGIAYNAKIGGIRMLDGDVTDVVEAKSLGIRPNYIDIYSASWGPDDDGKTVDGPGRLAKQAFEYGIKKGRQGLGSIFVWASGNGGREGDHCSCDGYTNSIYTISVSSTTENGHKPWYLEECASTLATTYSSGAFYERKIVTTDLRQRCTDGHTGTSVSAPMVAGIIALALEANNQLTWRDVQHLLVKTSRPAHLKASDWKVNGAGHKVSHLYGFGLVDAEALVLEARKWTAVPSQHMCVATADKRPRSIPVVQVLRTTALTNACADHSDQRVVYLEHVVVRISISHPRRGDLQIHLISPSGTKSQLLAKRLLDFSNEGFTNWEFMTVHCWGEKAEGEWTLEVQDIPSQVRNPEKQGKLKEWSLILYGTAEHPYRTFSSHQSRSRMLELSVPEQEPLKAEGPPPQAETPEEEEEYTGVCHPECGDKGCDGPSADQCLNCVHFSLGNSKTNRKCVSECPLGYFGDTAARRCRRCHKGCETCTGRSPTQCLSCRRGFYHHQETNTCVTLCPAGLYADESQRLCLRCHPSCQKCVDEPEKSTVCKEGFSLARGSCIPDCEPGTYFDSELIRCGECHHTCRTCVGPSREECIHCAKSFHFQDWKCVPACGEGFYPEEMPGLPHKVCRRCDENCLSCEGSSRNCSRCKAGFTQLGTSCITNHTCSNADETFCEMVKSNRLCERKLFIQFCCRTCLLAG
Turning to B2, the “in vitro cleavage of biotin-labeled substrate (Western blot)” value in series [1] was “other PCs were less efficient”; in series [3], “PACE4 and PC7 were less effective”.

B3: Recombinant human PC7 (protein)
chain: SVHFNDPKYPQQWHLNNRRSPGRDINVTGVWERNVTGRGVTVVVVDDGVEHTIQDIAPNYSPEGSYDLNSNDPDPMPHPDVENGNHHGTRCAGEIAAVPNNSFCAVGVAYGSRIAGIRVLDGPLTDSMEAVAFNKHYQINDIYSCSWGPDDDGKTVDGPHQLGKAALQHGVIAGRQGFGSIFVVASGNGGQHNDNCNYDGYANSIYTVTIGAVDEEGRMPFYAEECASMLAVTFSGGDKMLRSIVTTDWDLQKGTGCTEGHTGTSAAAPLAAGMIALMLQVRPCLTWRDVQHIIVFTATRYEDRRAEWVTNEAGFSHSHQHGFGLLNAWRLVNAAKIWTSVPYLASYVSPVLKENKAIPQSPRSLEVLWNVSRMDLEMSGLKTLEHVAVTVSITHPRRGSLELKLFCPSGMMSLIGAPRSMDSDPNGFNDWTFSTVRCWGERARGTYRLVIRDVGDESFQVGILRQWQLTLYGSVWSAVDIRDRQRLLESAMSGKYLHDDFALPCPPGLKIPEEDGYTITPNTLKT
On to B3, for which the “in vitro cleavage of biotin-labeled substrate (Western blot)” value in series [1] is “other PCs were less efficient”; in series [3], “PACE4 and PC7 were less effective”.

B4: Recombinant human PC5/6 (protein)
chain: DYDFSRAQSTYFNDPKWPSMWYMHCSDNTHPCQSDMNIEGAWKRGYTGKNIVVTILDDGIERTHPDLMQNYDALASCDVNGNDLDPMPRYDASNENKHGTRCAGEVAAAANNSHCTVGIAFNAKIGGVRMLDGDVTDMVEAKSVSFNPQHVHIYSASWGPDDDGKTVDGPAPLTRQAFENGVRMGRRGLGSVFVWASGNGGRSKDHCSCDGYTNSIYTISISSTAESGKKPWYLEECSSTLATTYSSGESYDKKIITTDLRQRCTDNHTGTSASAPMAAGIIALALEANPFLTWRDVQHVIVRTSRAGHLNANDWKTNAAGFKVSHLYGFGLMDAEAMVMEAEKWTTVPRQHVCVESTDRQIKTIRPNSAVRSIYKASGCSDNPNRHVNYLEHVVVRITITHPRRGDLAIYLTSPSGTRSQLLANRLFDHSMEGFKNWEFMTIHCWGERAAGDWVLEVYDTPSQLRNFKTPGKLKEWSLVLYGTSVQPYSPTNEFPKVERFRYSRVEDPTDDYGTEDYAGPCDPECSEVGCDGPGPDHCNDCLHYYYKLKNNTRICVSSCPPGHYHADKKRCRKCAPNCESCFGSHGDQCMSCKYGYFLNEETNSCVTHCPDGSYQDTKKNLCRKCSENCKTCTEFHNCTECRDGLSLQGSRCSVSCEDGRYFNGQDCQPCHRFCATCAGAGADGCINCTEGYFMEDGRCVQSCSISYYFDHSSENGYKSCKKCDISCLTCNGPGFKNCTSCPSGYLLDLGMCQMGAICKDATEESWAEGGFCMLVKKNNLCQRKVLQQLCCKTCTFQG
In the case of B4, the “in vitro cleavage of biotin-labeled substrate (Western blot)” value in series [1] is recorded as “efficiently cleaved”. For the same protein, the “in vitro cleavage at pH 5.5 (Western blot)” value in series [2] was “readily processed”.
